Among the data in patent US20170189513A1 are peptide exchange yield values, retold here.

This test concerns the target HLA-A*24 (human). The test is described as follows: UV-ligand exchange, b2m ELISA. For orientation: In an ELISA, binding on a coated surface is turned into a signal by an enzyme label.

Where no end group is shown, it is not given here.

B1: … (SEQ ID No 186) (peptide)
peptide: IFPQFLYQF
Molecule B1 showed a peptide exchange yield of more than 75%.

B2: … (SEQ ID No 164) (peptide)
peptide: KFSSFSLFF
B2: the peptide exchange yield was 50 to 75%.

B3: … (SEQ ID No 158) (peptide)
peptide: HYSQELSLLYL
For the molecule B3, the peptide exchange yield was more than 75%.

B4: … (SEQ ID No 219) (peptide)
peptide: EYPLVINTL
With B4, the peptide exchange yield lay in the range of 50 to 75%.

B5: … (SEQ ID No 163) (peptide)
peptide: DYLKGLASF
On to B5, for which the peptide exchange yield is more than 75%.

B6: … (SEQ ID No 205) (peptide)
peptide: VHIPEVYLI
On to B6, for which the peptide exchange yield was in the range of 50 to 75%.

B7: … (SEQ ID No 165) (peptide)
peptide: DYTTWTALL
Consider B7, for which the peptide exchange yield is more than 75%.

B8: … (SEQ ID No 224) (peptide)
peptide: QYLENLEKL
In the case of B8, the peptide exchange yield is 50 to 75%.

B9: … (SEQ ID No 206) (peptide)
peptide: EYQENFLSF
Molecule B9 gave a peptide exchange yield of 50 to 75%.

B10: … (SEQ ID No 171) (peptide)
peptide: LFIPSSKLLFL
For the molecule B10, the peptide exchange yield lay in the range of 50 to 75%.

B11: … (SEQ ID No 178) (peptide)
peptide: IFIEVFSHF
B11 showed a peptide exchange yield of 50 to 75%.

B12: … (SEQ ID No 173) (peptide)
peptide: IYSWILDHF
B12: the peptide exchange yield was more than 75%.

B13: … (SEQ ID No 179) (peptide)
peptide: MYDSYWRQF
Regarding B13, the peptide exchange yield is more than 75%.

B14: … (SEQ ID No 180) (peptide)
peptide: IYDDSFIRPVTF
B14 displayed a peptide exchange yield of 50 to 75%.

B15: … (SEQ ID No 198) (peptide)
peptide: LYLDKATLI
B15 displayed a peptide exchange yield of 50 to 75%.

B16: … (SEQ ID No 194) (peptide)
peptide: EFGSLHLEFL
For the molecule B16, the peptide exchange yield is less than 20%.

B17: … (SEQ ID No 227) (peptide)
peptide: IFLDYEAGTLSF
Regarding B17, the peptide exchange yield is more than 75%.

B18: … (SEQ ID No 189) (peptide)
peptide: WYVNGVNYF
As for B18, the peptide exchange yield was in the range of 20 to 49%.

B19: … (SEQ ID No 169) (peptide)
peptide: AYTLIAPNI
In the case of B19, the peptide exchange yield lay in the range of 50 to 75%.

B20: … (SEQ ID No 267) (peptide)
peptide: KYMVYPQTF
The molecule B20 yielded a peptide exchange yield of more than 75%.

B21: … (SEQ ID No 193) (peptide)
peptide: RFHPTPLLL
Consider B21, for which the peptide exchange yield was more than 75%.

B22: … (SEQ ID No 271) (peptide)
peptide: LYHDIFSRL
The molecule B22 gave a peptide exchange yield of more than 75%.

B23: … (SEQ ID No 177) (peptide)
peptide: VYPWLGALL
Molecule B23 gave a peptide exchange yield of more than 75%.

B24: … (SEQ ID No 183) (peptide)
peptide: VFTSTARAF
Regarding B24, the peptide exchange yield fell in the range of 50 to 75%.

B25: … (SEQ ID No 168) (peptide)
peptide: KYQDILETI
On to B25, for which the peptide exchange yield was more than 75%.

B26: … (SEQ ID No 214) (peptide)
peptide: LYLKLWNLI
In turn, B26 had a peptide exchange yield of 50 to 75%.

B27: … (SEQ ID No 228) (peptide)
peptide: KYTSWYVAL
Molecule B27 had a peptide exchange yield of more than 75%.

B28: … (SEQ ID No 216) (peptide)
peptide: QYSSVFKSL
B28 had a peptide exchange yield of more than 75%.

B29: … (SEQ ID No 223) (peptide)
peptide: KYIPYKYVI
Turning to B29, the peptide exchange yield lay in the range of 50 to 75%.

B30: … (SEQ ID No 283) (peptide)
peptide: TYGDAGLTYTF
B30 showed a peptide exchange yield of 50 to 75%.

B31: … (SEQ ID No 275) (peptide)
peptide: EYINQGDLHEF
As for B31, the peptide exchange yield lay within 50 to 75%.

B32: … (SEQ ID No 161) (peptide)
peptide: IYLVSIPEL
B32 registered a peptide exchange yield of more than 75%.

B33: … (SEQ ID No 211) (peptide)
peptide: YYLEVGKTLI
For the molecule B33, the peptide exchange yield was more than 75%.

B34: … (SEQ ID No 221) (peptide)
peptide: RYSTGLAGNLL
Turning to B34, the peptide exchange yield is 50 to 75%.

B35: … (SEQ ID No 203) (peptide)
peptide: FYSRLLQKF
In the case of B35, the peptide exchange yield lay within 50 to 75%.

B36: … (SEQ ID No 181) (peptide)
peptide: LYLDIINLF
In turn, B36 yielded a peptide exchange yield of more than 75%.

B37: … (SEQ ID No 187) (peptide)
peptide: TYLRDQHFL
As for B37, the peptide exchange yield was more than 75%.

B38: YFDKVVTL (SEQ ID No 215) (peptide)
peptide: YFDKVVTL
For the molecule B38, the peptide exchange yield was in the range of 20 to 49%.

B39: … (SEQ ID No 272) (peptide)
peptide: QYLQDAYSF
The molecule B39 had a peptide exchange yield of more than 75%.

B40: … (SEQ ID No 191) (peptide)
peptide: VFKASKITF
For the molecule B40, the peptide exchange yield is 50 to 75%.

B41: … (SEQ ID No 190) (peptide)
peptide: GFFIFNERF
The molecule B41 showed a peptide exchange yield of 50 to 75%.

B42: … (SEQ ID No 274) (peptide)
peptide: AYLHSHALI
For the molecule B42, the peptide exchange yield is more than 75%.

B43: … (SEQ ID No 286) (peptide)
peptide: RYPDNLKHL
B43 yielded a peptide exchange yield of 20 to 49%.

B44: … (SEQ ID No 185) (peptide)
peptide: IYKVGAPTI
B44 came in with a peptide exchange yield of 50 to 75%.

B45: … (SEQ ID No 284) (peptide)
peptide: RYLNKAFHI
In turn, B45 registered a peptide exchange yield of 50 to 75%.

B46: … (SEQ ID No 273) (peptide)
peptide: TYIKPISKL
B46 yielded a peptide exchange yield of 50 to 75%.

B47: … (SEQ ID No 182) (peptide)
peptide: IYQLDTASI
B47: the peptide exchange yield was in the range of 50 to 75%.

B48: … (SEQ ID No 282) (peptide)
peptide: KFVDSTFYL
The molecule B48 came in with a peptide exchange yield of more than 75%.

B49: … (SEQ ID No 278) (peptide)
peptide: RYISDQLFTNF
Turning to B49, the peptide exchange yield is more than 75%.

B50: … (SEQ ID No 225) (peptide)
peptide: YYVYIMNHL
In the case of B50, the peptide exchange yield was in the range of 50 to 75%.

B51: … (SEQ ID No 172) (peptide)
peptide: TYTTVPRVAF
Molecule B51 showed a peptide exchange yield of more than 75%.

B52: … (SEQ ID No 208) (peptide)
peptide: TYTQDFNKF
As to B52, the peptide exchange yield lay in the range of 50 to 75%.

B53: RYFKGLVF (SEQ ID No 188) (peptide)
peptide: RYFKGLVF
Consider B53, for which the peptide exchange yield lay within 50 to 75%.

B54: … (SEQ ID No 166) (peptide)
peptide: YYVESGKLF
B54 returned a peptide exchange yield of more than 75%.

B55: … (SEQ ID No 210) (peptide)
peptide: IYTMIYRNL
The molecule B55 came in with a peptide exchange yield of more than 75%.

B56: … (SEQ ID No 162) (peptide)
peptide: VFTRVSSFL
For the molecule B56, the peptide exchange yield lay in the range of 50 to 75%.

B57: … (SEQ ID No 217) (peptide)
peptide: FFPPTRQMGLLF
Turning to B57, the peptide exchange yield was more than 75%.

B58: … (SEQ ID No 170) (peptide)
peptide: VYEDQVGKF
B58 displayed a peptide exchange yield of 20 to 49%.

B59: … (SEQ ID No 192) (peptide)
peptide: SYALLTYMI
In turn, B59 gave a peptide exchange yield of more than 75%.

B60: … (SEQ ID No 159) (peptide)
peptide: LYNKGFIYL
Turning to B60, the peptide exchange yield was more than 75%.

B61: … (SEQ ID No 289) (peptide)
peptide: KYPVEWAKF
As for B61, the peptide exchange yield was more than 75%.

B62: … (SEQ ID No 279) (peptide)
peptide: TYIESASEL
B62 gave a peptide exchange yield of 50 to 75%.

B63: … (SEQ ID No 226) (peptide)
peptide: VYRDETGELF
Regarding B63, the peptide exchange yield fell in the range of 50 to 75%.

B64: … (SEQ ID No 167) (peptide)
peptide: NYINRILKL
B64: the peptide exchange yield is more than 75%.

B65: … (SEQ ID No 160) (peptide)
peptide: VYTLDIPVL
As for B65, the peptide exchange yield was more than 75%.

B66: … (SEQ ID No 280) (peptide)
peptide: RYPDNLKHLYL
The molecule B66 had a peptide exchange yield of more than 75%.

B67: … (SEQ ID No 184) (peptide)
peptide: VFQNFPLLF
For B67, the peptide exchange yield is more than 75%.

B68: … (SEQ ID No 288) (peptide)
peptide: VYVSDIQEL
B68 came in with a peptide exchange yield of 50 to 75%.

B69: … (SEQ ID No 276) (peptide)
peptide: VYGFQWRHF
B69 came in with a peptide exchange yield of more than 75%.
